In the Immune Epitope Database (IEDB) one finds Kd data, which are given here for 39 sequences.

Targets include HLA-A*68:01; HLA-A*31:01; HLA-A*33:01; HLA-A*03:01; HLA-A*11:01.
What all share (experiment): IEDB peptide-MHC binding, purified MHC/competitive/radioactivity; filed as Kd, often an IC50 or EC50 that approximates it; ≥ and ≤ were set here for values at or beyond the usual limits of such assays
Where [1] appears, read: source organism: Vaccinia virus WR.
The mark [2] stands for this setting: source organism: Dengue virus 2 Jamaica/1409/1983.
Setting [3] is: source organism: Dengue virus 3 Martinique/1243/1999.
Setting [4] is: source organism: Mammarenavirus guanaritoense.
The mark [5] stands for this setting: source organism: Dengue virus 1 Singapore/S275/1990.
Where [6] appears, read: source organism: Lassa virus Josiah.
The mark [7] stands for this setting: source organism: Dengue virus 4 Philippines/H241/1956.
[8] abbreviates: source organism: Mammarenavirus tacaribeense.
Setting [9] is: source organism: SARS coronavirus Tor2.

The Kd is the concentration at which binding is half-saturated. For NFPQHVITK, the Kd with HLA-A*68:01 (setting [1]) was 1250 nM; in the test with HLA-A*31:01 (setting [1]), 11600 nM; in the test with HLA-A*33:01 (setting [1]), 8920 nM; in the test with HLA-A*03:01 (setting [1]), 4020 nM; with HLA-A*11:01 (setting [1]), 2050 nM.

Regarding GVFTTNIWLK, the Kd was found to be 1.45 nM in the test with HLA-A*68:01 (setting [2]), 29.3 nM with HLA-A*03:01 (setting [2]) and 40.7 nM with HLA-A*11:01 (setting [2]).

As to NVISSKISY, the dissociation constant Kd with HLA-A*68:01 (setting [1]) amounted to 439 nM; in the test with HLA-A*31:01 (setting [1]), 4960 nM; in the test with HLA-A*33:01 (setting [1]) it was 6450 nM; with HLA-A*03:01 (setting [1]), 651 nM; with HLA-A*11:01 (setting [1]), 482 nM.

As for SAKQLRTRIR, the Kd with HLA-A*68:01 (setting [1]) is at least 28800 nM; with HLA-A*31:01 (setting [1]), 1100 nM; with HLA-A*33:01 (setting [1]) it was 17300 nM; in the test with HLA-A*03:01 (setting [1]), at least 70100 nM; in the test with HLA-A*11:01 (setting [1]), at least 45500 nM.

As to DTRTPRAKR, the Kd with HLA-A*33:01 (source organism: Dengue virus 1 Brazil/97-11/1997) amounted to 29.8 nM.

As for AVVADLSAR, the dissociation constant (Kd) stood at 6.45 nM with HLA-A*68:01 (setting [1]); 26.6 nM with HLA-A*31:01 (setting [1]); 712 nM with HLA-A*33:01 (setting [1]); 141 nM with HLA-A*03:01 (setting [1]); 51.8 nM with HLA-A*11:01 (setting [1]).

On to FSKSTSPTR, for which the Kd is 9.78 nM with HLA-A*68:01 (setting [1]); 20.6 nM with HLA-A*31:01 (setting [1]); 387 nM in the test with HLA-A*33:01 (setting [1]); at least 42200 nM with HLA-A*03:01 (setting [1]); 12300 nM with HLA-A*11:01 (setting [1]).

For AIWYMWLGAR, the results for the dissociation constant (Kd) in the test with HLA-A*31:01 (setting [3]) and with HLA-A*33:01 (setting [3]) were 42.3 nM and 57.3 nM, respectively.

For TMEIEDQEYH, the Kd with HLA-A*68:01 (setting [4]) was 8530 nM; with HLA-A*31:01 (setting [4]) it was at least 70000 nM; with HLA-A*33:01 (setting [4]) it was at least 70000 nM; with HLA-A*03:01 (setting [4]) it was at least 70000 nM; with HLA-A*11:01 (setting [4]), at least 69700 nM.

Regarding GLAMGIMILK, the equilibrium dissociation constant (Kd) is 20.7 nM with HLA-A*03:01 (setting [5]) and 69.8 nM in the test with HLA-A*11:01 (setting [5]).

Turning to MANEMGFLEK, in the test with HLA-A*11:01 (setting [2]), the Kd is 519 nM.

Take ALAFHLTSR: the Kd with HLA-A*03:01 (setting [3]) was 34.9 nM.

As for ETKITFALKK, the Kd in the test with HLA-A*68:01 (setting [1]) is 74.8 nM; with HLA-A*31:01 (setting [1]), 8270 nM; in the test with HLA-A*33:01 (setting [1]), 3200 nM; with HLA-A*03:01 (setting [1]), 1230 nM; with HLA-A*11:01 (setting [1]), 93.1 nM.

As to ICKMPLPTK, the Kd in the test with HLA-A*68:01 (setting [6]) is 17200 nM; with HLA-A*31:01 (setting [6]) it was 19800 nM; with HLA-A*33:01 (setting [6]) it was at least 47400 nM; with HLA-A*03:01 (setting [6]) it was 891 nM; in the test with HLA-A*11:01 (setting [6]), 712 nM.

In the case of HLKVALYRR, the Kd in the test with HLA-A*68:01 (setting [1]) worked out at 67.1 nM; in the test with HLA-A*31:01 (setting [1]) it was 0.197 nM; with HLA-A*33:01 (setting [1]) it was 9.72 nM; with HLA-A*03:01 (setting [1]) it was 1190 nM; with HLA-A*11:01 (setting [1]), 9610 nM.

For SLRTTTVSGK, the dissociation constant (Kd) with HLA-A*03:01 (setting [3]) was determined as 5.78 nM.

For ILSYIYSEIK, the Kd in the test with HLA-A*68:01 (setting [1]) is 1240 nM; with HLA-A*31:01 (setting [1]), at least 37000 nM; with HLA-A*33:01 (setting [1]), at least 70000 nM; in the test with HLA-A*03:01 (setting [1]) it was 38.8 nM; with HLA-A*11:01 (setting [1]) it was 62.1 nM.

For the sequence VASAGISYK, the Kd in the test with HLA-A*03:01 (setting [7]) worked out at 28.4 nM; with HLA-A*11:01 (setting [7]), 37.4 nM.

For the sequence FSKNILKYY, the equilibrium dissociation constant (Kd) was 5490 nM with HLA-A*68:01 (setting [1]); 16300 nM in the test with HLA-A*31:01 (setting [1]); at least 77700 nM with HLA-A*33:01 (setting [1]); at least 21200 nM with HLA-A*03:01 (setting [1]); at least 28900 nM in the test with HLA-A*11:01 (setting [1]).

Turning to CAGVIEYAK, the Kd worked out at 51.1 nM in the test with HLA-A*68:01 (setting [1]); 2220 nM in the test with HLA-A*31:01 (setting [1]); 1190 nM with HLA-A*33:01 (setting [1]); 988 nM with HLA-A*03:01 (setting [1]); 192 nM with HLA-A*11:01 (setting [1]).

Regarding NCKCCWFADK, the Kd in the test with HLA-A*68:01 (setting [8]) is at least 20700 nM; with HLA-A*31:01 (setting [8]) it was 12100 nM; with HLA-A*33:01 (setting [8]), at least 29600 nM; in the test with HLA-A*03:01 (setting [8]) it was 13300 nM; in the test with HLA-A*11:01 (setting [8]) it was at least 69700 nM.

MVTFKVPHAK: the Kd in the test with HLA-A*68:01 (setting [7]) came to 133 nM; with HLA-A*03:01 (setting [7]) it was 80.3 nM; with HLA-A*11:01 (setting [7]), 251 nM.

On to NMISRMLINR, for which the Kd with HLA-A*68:01 (setting [2]) was found to be 137 nM; with HLA-A*31:01 (setting [2]), 18 nM; in the test with HLA-A*33:01 (setting [2]), 7.06 nM.

Take VTEFRRTAIH: the dissociation constant (Kd) with HLA-A*68:01 (setting [4]) is 15300 nM; with HLA-A*31:01 (setting [4]) it was 10700 nM; with HLA-A*33:01 (setting [4]), 5850 nM; in the test with HLA-A*03:01 (setting [4]), at least 33100 nM.

On to ILARWGSFKK, for which the Kd with HLA-A*03:01 (setting [5]) was 9.69 nM.

On to EGAWKHAQR, for which the dissociation constant Kd with HLA-A*68:01 (setting [7]) is 115 nM.

ATNNVFRLK: the Kd turned out to be 11.6 nM with HLA-A*68:01 (setting [9]), 2.57 nM with HLA-A*31:01 (setting [9]) and 6410 nM with HLA-A*33:01 (setting [9]).

As for LISGKGIGK, in the test with HLA-A*03:01 (setting [3]), the dissociation constant Kd stood at 722 nM.

For the sequence WTLMYFHRR, the values for the equilibrium dissociation constant (Kd) with HLA-A*31:01 (setting [2]) and with HLA-A*33:01 (setting [2]) were 1.49 nM and 6.56 nM, respectively.

Turning to SSMINGVVK, the Kd with HLA-A*11:01 (setting [3]) stood at 12.9 nM.

Consider TTAKEVALLR, for which the Kd in the test with HLA-A*68:01 (setting [7]) was determined as 73.3 nM.

Regarding TIGTTHFQR, the figures for the Kd in the test with HLA-A*68:01 (setting [2]) and with HLA-A*31:01 (setting [2]) were 18.4 nM and 14.3 nM, respectively.

KAKIFTPEAR: the Kd with HLA-A*31:01 (source organism: Dengue virus 4 Dominica/814669/1981) stood at 2.85 nM.

With MSAAVKDER, the values for the Kd in the test with HLA-A*68:01 (setting [3]) and with HLA-A*31:01 (setting [3]) were 74.3 nM and 32.4 nM, respectively.

With EMGANFKAER, the Kd with HLA-A*33:01 (setting [2]) stood at 15.5 nM.

In the case of MILLTMKNK, the dissociation constant Kd with HLA-A*03:01 (setting [3]) worked out at 49.7 nM; with HLA-A*11:01 (setting [3]), 1200 nM.

As to MLVAPSYGMR, the Kd with HLA-A*68:01 (setting [7]) is 7.59 nM.

For RWLWGFLSR, the Kd in the test with HLA-A*31:01 (setting [5]) turned out to be 1.45 nM.

GSQLAKRFSR: the dissociation constant Kd in the test with HLA-A*31:01 (source organism: Dengue virus 3 Singapore/8120/1995) worked out at 54.4 nM.
